IntAct's records for PubMed 18007657

Biological target: T1, anm10_arath PRMT10 (UniProt Q9MAT5)
T1 sequence: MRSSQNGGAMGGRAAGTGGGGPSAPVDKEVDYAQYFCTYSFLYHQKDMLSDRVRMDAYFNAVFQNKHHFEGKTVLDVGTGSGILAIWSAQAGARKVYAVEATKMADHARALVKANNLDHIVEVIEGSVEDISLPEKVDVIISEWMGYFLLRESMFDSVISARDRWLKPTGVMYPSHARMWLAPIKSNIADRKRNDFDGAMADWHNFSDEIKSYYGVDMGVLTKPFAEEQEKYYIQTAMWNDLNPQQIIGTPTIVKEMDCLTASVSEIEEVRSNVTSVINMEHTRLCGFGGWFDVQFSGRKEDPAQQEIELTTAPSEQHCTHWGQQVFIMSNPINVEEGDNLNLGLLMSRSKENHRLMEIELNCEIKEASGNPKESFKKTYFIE

effect of a mutation on the interaction: decreasing interaction
Substance: Histone H4 (Bos taurus (Bovine)) (from UniProt P62803) R4L
